The text below walks through data of article PMC10436073, “Saccharomyces cerevisiae NRE1 and IRC24 Encode Paralogous Benzil Oxidoreductases” (microPublication Biology, 2023).

Substrate in the data set: O=C(C(=O)c1ccccc1)c1ccccc1
Briefly: purified protein. Format: biochemical, Saccharomyces cerevisiae. The note with it: NADPH 0.075 mM (preferred cofactor; NADH also measured), 10 mM Tris-HCl pH 8.0, 30 C, apparent Km.

B1: Irc24p (Saccharomyces cerevisiae S288C) (protein)
chain: MGKVILITGASRGIGLQLVKTVIEEDDECIVYGVARTEAGLQSLQREYGADKFVYRVLDITDRSRMEALVEEIRQKHGKLDGIVANAGMLEPVKSISQSNSEHDIKQWERLFDVNFFSIVSLVALCLPLLKSSPFVGNIVFVSSGASVKPYNGWSAYGCSKAALNHFAMDIASEEPSDKVRAVCIAPGVVDTQMQKDIRETLGPQGMTPKALERFTQLYKTSSLLDPKVPAAVLAQLVLKGIPDSLNGQYLRYNDERLGPVQG
In general, Km refers to the concentration of substrate that gives half-maximal velocity. Turning to B1, the Km came to 420 µM.

B2: Nre1p (Saccharomyces cerevisiae S288C) (protein)
chain: MGKVILVTGVSRGIGKSIVDVLFSLDKDTVVYGVARSEAPLKKLKEKYGDRFFYVVGDITEDSVLKQLVNAAVKGHGKIDSLVANAGVLEPVQNVNEIDVNAWKKLYDINFFSIVSLVGIALPELKKTNGNVVFVSSDACNMYFSSWGAYGSSKAALNHFAMTLANEERQVKAIAVAPGIVDTDMQVNIRENVGPSSMSAEQLKMFRGLKENNQLLDSSVPATVYAKLALHGIPDGVNGQYLSYNDPALADFMP
Turning to B2, the Km stood at 390 µM.
